Laboratory results: US7261890

How the values were obtained:
[1] = biological target: recombinant canine IgE (canine); experiment: IgE binding ELISA of COS supernatant; second number is the relative expression level
[2] = biological target: recombinant canine IgE (canine); experiment: IgE binding ELISA, COS supernatant on plate-coated recombinant canine IgE, anti-dog Fc-HRP
[3] = biological target: recombinant canine IgE (canine); experiment: OD of IgE binding ELISA divided by IgG expression relative to chimeric 15A2, COS supernatant
[4] = biological target: recombinant canine IgE (canine); experiment: IgE binding ELISA of COS supernatant; in this cell the order is reversed (2.4 is the relative expression of Table 5, 0 the OD)

Binder	OD of IgE Binding (printed over relative expression level) [1] [OD 650 nm]	OD at 650 nm (IgE Binding) [2] [OD 650 nm]	Ratio IgE Binding/Expression [3]	OD of IgE Binding (printed over relative expression level) [4] [OD 650 nm]
H74-1 caninized heavy chain with 15A2 chimeric light chain Lx (antibody, part only; not given: constant regions, V domains shown, part only) VH: EVQLVQSAAEVKKPGASVKVSCKTSGYSFTDYFMNWVQQAPGAGLDWMGRINPFNGDPFYNQKFKGRVTLTADTSTSTAYMELSSLRAEDAAVYYCARFYYGRYYAMDYWGQGTLVTV	1.3	1.3	13	
H74-1 / Group 2-1 (CDR-grafted caninized 15A2, heavy and light) (antibody, part only; not given: constant regions, V domains shown, part only) VH: EVQLVQSAAEVKKPGASVKVSCKTSGYSFTDYFMNWVQQAPGAGLDWMGRINPFNGDPFYNQKFKGRVTLTADTSTSTAYMELSSLRAEDAAVYYCARFYYGRYYAMDYWGQGTLVTV				0
